For four substances, response results are on record in PMC6202329.

Test in all cases: complementary split luciferase
Settings in all cases: n = 5; parent: est. 1.0; read off a plot

In assay [1] the target is ARAF(DDEE/L358M/R362H) fused to Nluc or Cluc (UniProt P10398).
In assay [2] the target is ARAF(DDEE/L358M/APE) fused to Nluc or Cluc (UniProt P10398).
Assay [3] has as its target ARAF(DDEE/L358M/R362H/APE) fused to Nluc or Cluc (UniProt P10398).
In assay [4] the target is ARAF(DDEE/L358M) fused to Nluc or Cluc (UniProt P10398).

Consider “ARAF (wild type) fused to Nluc or Cluc (from UniProt P10398) DGEE; L358M; R362H”, for which the response in assay [1] was found to be 1.1.

As to “ARAF (wild type) fused to Nluc or Cluc (from UniProt P10398) DGEE; L358M; APE”, the response in assay [2] turned out to be 5.4.

For the substance “ARAF (wild type) fused to Nluc or Cluc (from UniProt P10398) DGEE; L358M; APE; R362H”, the response in assay [3] came out at 3.6.

Regarding “ARAF (wild type) fused to Nluc or Cluc (from UniProt P10398) DGEE; L358M”, the response in assay [4] is 3.3.
